The source of these data is FireProtDB (doi:10.1021/bi047926u).

Where “and” joins values, the source holds several entries; their conditions need not be identical. Equal entries are not always repeated.

The conditions of this series: Bacillus subtilis (strain 168); pH 7.2; Thermal; CD; TES-KOH 21 mM; KCl 4 mM; reversible: No; whole UniProt chain shown.

B1: Manganese-dependent inorganic pyrophosphatase wild type, P37487 (protein)
chain: MEKILIFGHQNPDTDTICSAIAYADLKNKLGFNAEPVRLGQVNGETQYALDYFKQESPRLVETAANEVNGVILVDHNERQQSIKDIEEVQVLEVIDHHRIANFETAEPLYYRAEPVGCTATILNKMYKENNVKIEKEIAGLMLSAIISDSLLFKSPTCTDQDVAAAKELAEIAGVDAEEYGLNMLKAGADLSKKTVEELISLDAKEFTLGSKKVEIAQVNTVDIEDVKKRQAELEAVISKVVAEKNLDLFLLVITDILENDSLALAIGNEAAKVEKAFNVTLENNTALLKGVVSRKKQVVPVLTDAMAE
Regarding B1, the Tm is 50 °C and 46 °C.

One may read the Tm as the temperature at the midpoint of the melting transition.
